Measured values published in patent publication US20180291335A1, “MODIFIED POLYNUCLEOTIDES FOR ALTERING CELL PHENOTYPE” (ModernaTX, Inc., priority 2012, published 2018).

B1: 50% modification: G-CSF mRNA (SEQ ID NO: 408) partially modified with 5mC and pseudoU, 50% modification (nucleic acid)
chain: GGGAAAUAAGAGAGAAAAGAAGAGUAAGAAGAAAUAUAAGAGCCACCAUGGCCGGUCCCGCGACCCAAAGCCCCAUGAAACUUAUGGCCCUGCAGUUGCUGCUUUGGCACUCGGCCCUCUGGACAGUCCAAGAAGCGACUCCUCUCGGACCUGCCUCAUCGUUGCCGCAGUCAUUCCUUUUGAAGUGUCUGGAGCAGGUGCGAAAGAUUCAGGGCGAUGGAGCCGCACUCCAAGAGAAGCUCUGCGCGACAUACAAACUUUGCCAUCCCGAGGAGCUCGUACUGCUCGGGCACAGCUUGGGGAUUCCCUGGGCUCCUCUCUCGUCCUGUCCGUCGCAGGCUUUGCAGUUGGCAGGGUGCCUUUCCCAGCUCCACUCCGGUUUGUUCUUGUAUCAGGGACUGCUGCAAGCCCUUGAGGGAAUCUCGCCAGAAUUGGGCCCGACGCUGGACACGUUGCAGCUCGACGUGGCGGAUUUCGCAACAACCAUCUGGCAGCAGAUGGAGGAACUGGGGAUGGCACCCGCGCUGCAGCCCACGCAGGGGGCAAUGCCGGCCUUUGCGUCCGCGUUUCAGCGCAGGGCGGGUGGAGUCCUCGUAGCGAGCCACCUUCAAUCAUUUUUGGAAGUCUCGUACCGGGUGCUGAGACAUCUUGCGCAGCCGUGAAGCGCUGCCUUCUGCGGGGCUUGCCUUCUGGCCAUGCCCUUCUUCUCUCCCUUGCACCUGUACCUCUUGGUCUUUGAAUAAAGCCUGAGUAGGAAG
modifications: 50% 5mC/pseudoU modified; Description of Artificial Sequence: Synthetic Transcript Sequence
B2: 25% modification: G-CSF mRNA (SEQ ID NO: 408) partially modified with 5mC and pseudoU, 25% modification (nucleic acid)
chain: GGGAAAUAAGAGAGAAAAGAAGAGUAAGAAGAAAUAUAAGAGCCACCAUGGCCGGUCCCGCGACCCAAAGCCCCAUGAAACUUAUGGCCCUGCAGUUGCUGCUUUGGCACUCGGCCCUCUGGACAGUCCAAGAAGCGACUCCUCUCGGACCUGCCUCAUCGUUGCCGCAGUCAUUCCUUUUGAAGUGUCUGGAGCAGGUGCGAAAGAUUCAGGGCGAUGGAGCCGCACUCCAAGAGAAGCUCUGCGCGACAUACAAACUUUGCCAUCCCGAGGAGCUCGUACUGCUCGGGCACAGCUUGGGGAUUCCCUGGGCUCCUCUCUCGUCCUGUCCGUCGCAGGCUUUGCAGUUGGCAGGGUGCCUUUCCCAGCUCCACUCCGGUUUGUUCUUGUAUCAGGGACUGCUGCAAGCCCUUGAGGGAAUCUCGCCAGAAUUGGGCCCGACGCUGGACACGUUGCAGCUCGACGUGGCGGAUUUCGCAACAACCAUCUGGCAGCAGAUGGAGGAACUGGGGAUGGCACCCGCGCUGCAGCCCACGCAGGGGGCAAUGCCGGCCUUUGCGUCCGCGUUUCAGCGCAGGGCGGGUGGAGUCCUCGUAGCGAGCCACCUUCAAUCAUUUUUGGAAGUCUCGUACCGGGUGCUGAGACAUCUUGCGCAGCCGUGAAGCGCUGCCUUCUGCGGGGCUUGCCUUCUGGCCAUGCCCUUCUUCUCUCCCUUGCACCUGUACCUCUUGGUCUUUGAAUAAAGCCUGAGUAGGAAG
modifications: 25% 5mC and pseudoU modification; Description of Artificial Sequence: Synthetic Transcript Sequence
B3: 2′Fluoroguanine triphosphate/pseudouridine: G-CSF mRNA (SEQ ID NO: 408) fully modified with the named combination (nucleic acid)
chain: GGGAAAUAAGAGAGAAAAGAAGAGUAAGAAGAAAUAUAAGAGCCACCAUGGCCGGUCCCGCGACCCAAAGCCCCAUGAAACUUAUGGCCCUGCAGUUGCUGCUUUGGCACUCGGCCCUCUGGACAGUCCAAGAAGCGACUCCUCUCGGACCUGCCUCAUCGUUGCCGCAGUCAUUCCUUUUGAAGUGUCUGGAGCAGGUGCGAAAGAUUCAGGGCGAUGGAGCCGCACUCCAAGAGAAGCUCUGCGCGACAUACAAACUUUGCCAUCCCGAGGAGCUCGUACUGCUCGGGCACAGCUUGGGGAUUCCCUGGGCUCCUCUCUCGUCCUGUCCGUCGCAGGCUUUGCAGUUGGCAGGGUGCCUUUCCCAGCUCCACUCCGGUUUGUUCUUGUAUCAGGGACUGCUGCAAGCCCUUGAGGGAAUCUCGCCAGAAUUGGGCCCGACGCUGGACACGUUGCAGCUCGACGUGGCGGAUUUCGCAACAACCAUCUGGCAGCAGAUGGAGGAACUGGGGAUGGCACCCGCGCUGCAGCCCACGCAGGGGGCAAUGCCGGCCUUUGCGUCCGCGUUUCAGCGCAGGGCGGGUGGAGUCCUCGUAGCGAGCCACCUUCAAUCAUUUUUGGAAGUCUCGUACCGGGUGCUGAGACAUCUUGCGCAGCCGUGAAGCGCUGCCUUCUGCGGGGCUUGCCUUCUGGCCAUGCCCUUCUUCUCUCCCUUGCACCUGUACCUCUUGGUCUUUGAAUAAAGCCUGAGUAGGAAG
modifications: 2'-fluoroguanine/pseudouridine modified; Description of Artificial Sequence: Synthetic Transcript Sequence

What was measured:
Assay type in all cases: cell-based, human
HeLa cells [1] = experiment: In vitro screening in HeLa cells, luciferase modified RNA; design: key to Protein (Luc; HeLa): the protein production of HeLa is judged by “+,” “+1-” and “−”; the protein production of HeLa is judged by “+,” “+1-” and “−”; the protein production of HeLa is judged by “+,” “+1-” and “−”
Method: The day before transfection, 20,000 HeLa cells (ATCC no. CCL-2; Manassas, Va.) were harvested by treatment with Trypsin-EDTA solution (LifeTechnologies, Grand Island, N.Y.) and seeded in a total volume of 100 ul EMEM medium (supplemented with 10% FCS and 1× Glutamax) per well in a 96-well cell culture plate (Corning, Manassas, Va.). The cells were grown at […] in 5% CO2 atmosphere overnight. […] Lipofectamine 2000 (LifeTechnologies, Grand Island, N.Y.) was used as transfection reagent and 0.2 ul were diluted in 10 ul final volume of OPTI-MEM. After 5 minutes of incubation at room temperature, both solutions were combined and incubated an additional 15 minute at room temperature. Then the 20 ul combined solution was added to the 100 ul cell culture medium containing the HeLa cells and incubated at room temperature.
After 18 to 22 hours of incubation cells expressing luciferase were lysed with 100 ul of Passive Lysis Buffer (Promega, Madison, Wis.) according to manufacturer instructions. Aliquots of the lysates were transferred to white opaque polystyrene 96-well plates (Corning, Manassas, Va.) and combined with 100 ul complete luciferase assay solution (Promega, Madison, Wis.). The lysate volumes were adjusted or diluted until no more than 2 mio relative light units (RLU) per well were detected for the strongest signal producing samples and the RLUs for each chemistry tested are shown in Table 19. The plate reader was a BioTek Synergy H1 (BioTek, Winooski, Vt.). The background signal of the plates without reagent was about 200 relative light units per well.

interferon-alpha (IFN-α) = experiment: In vitro screening in PBMC: interferon-alpha induction by ELISA
Description: The supernatant was harvested and stored frozen until analyzed by ELISA to determine the G-CSF protein expression, and the induction of the cytokines interferon-alpha (IFN-α) and tumor necrosis factor alpha (TNF-α).

HeLa cells [2] = experiment: G-CSF modified mRNA transfected in HeLa cells, G-CSF ELISA; design: key to Protein (G-CSF; HeLa): the protein production of HeLa is judged by “+,” “+1-” and “−”; the protein production of HeLa is judged by “+,” “+1-” and “−”; the protein production of HeLa is judged by “+,” “+1-” and “−”
Method: To assess the activity of all our different chemical modifications in the context of a second open reading frame, we replicated experiments previously conducted using luciferase mRNA, with human G-CSF mRNA. […] The mutant T7 polymerase was obtained commercially (Durascribe® T7 Transcription kit (Cat. No. DS010925) (Epicentre®, Madison, Wis.).
The modified RNA in Tables 27 and 28 were transfected in vitro in HeLa cells or added to rabbit reticulysates (250 ng of modified mRNA) as indicated. […] In Table 27, “NT” means not tested.

[3] = tested on: peripheral blood mononuclear cells (PBMC); experiment: In vitro PBMC study, percent modification: G-CSF expression by ELISA; conditions: for G-CSF Expression: 22 hours after transfection; for Average G-CSF: PBMC, average of three donors
Method: 480 ng of G-CSF mRNA modified with 5-methylcytosine (5mC) and pseudouridine (pseudoU) or unmodified G-CSF mRNA was transfected with 0.4 uL of Lipofectamine 2000 into peripheral blood mononuclear cells (PBMC) from three normal blood donors (D1, D2, and D3). […] The supernatant was harvested and run by ELISA 22 hours after transfection to determine the protein expression. The expression of IFN-alpha and TNF-alpha may be a secondary effect from the transfection of the G-CSF mRNA.

IFN-alpha = experiment: In vitro PBMC study, percent modification: IFN-alpha expression by ELISA; conditions: for Average IFN-a / G-CSF/IFN-alpha (PC ratio): PBMC; for Average IFN-a: average of three donors; for G-CSF/IFN-alpha (PC ratio): protein/cytokine ratio from averages
Method: (§1) The supernatant was harvested and run by ELISA 22 hours after transfection to determine the protein expression.

TNF-alpha = experiment: In vitro PBMC study, percent modification: TNF-alpha expression by ELISA; conditions: for Average TNF-a / G-CSF/TNF-alpha (PC ratio): PBMC; for Average TNF-a: average of three donors; for G-CSF/TNF-alpha (PC ratio): protein/cytokine ratio from averages
Method: as §1

[4] = Table 30, non-naturally occurring chemistries, luciferase modified mRNA in HeLa, ** = second result, IVT with mutant T7 polymerase
[5] = PBMC donor D1, 22 hours after transfection
[6] = PBMC donor D2, 22 hours after transfection
[7] = PBMC donor D3, 22 hours after transfection

Row | Molecule | Protein (Luc; HeLa) (HeLa cells [1]; [4]) | G-CSF Expression ([3]; PBMC donor D1, 480 ng mRNA) | G-CSF Expression ([3]; PBMC donor D2, 480 ng mRNA) | G-CSF Expression ([3]; PBMC donor D3, 480 ng mRNA) | Average G-CSF [3] | IFN-alpha Expression (IFN-alpha; [5]) | IFN-alpha Expression (IFN-alpha; [6]) | IFN-alpha Expression (IFN-alpha; [7]) | Average IFN-a (IFN-alpha) | G-CSF/IFN-alpha (PC ratio) (IFN-alpha) | TNF-alpha Expression (TNF-alpha; [5]) | TNF-alpha Expression (TNF-alpha; [6]) | TNF-alpha Expression (TNF-alpha; [7]) | Average TNF-a (TNF-alpha) | G-CSF/TNF-alpha (PC ratio) (TNF-alpha) | other results
1 | 2′-F-adenosine | −** |  |  |  |  |  |  |  |  |  |  |  |  |  |  | 
2 | N^6-methyladenosine (m^6A) |  |  |  |  |  |  |  |  |  |  |  |  |  |  |  | Cytokines (G-CSF; PBMC) (interferon-alpha (IFN-α); summary grade, IFN-alpha, G-CSF mRNA in PBMC): ++++ (“++++” means greater than 1,000 pg/ml interferon-alpha (IFN-alpha)); Protein (Luc; HeLa) (HeLa cells [1]; summary grade, luciferase mRNA in HeLa): −; Protein (G-CSF; HeLa) (HeLa cells [2]; summary grade, G-CSF mRNA in HeLa): −
3 | COC(=O)C=Cc1cn([C@@H]2O[C@H](CO)[C@@H](O)[C@H]2O)c(=O)[nH]c1=O [5-(2-carbomethoxyvinyl) Uridine] | − |  |  |  |  |  |  |  |  |  |  |  |  |  |  | Cytokines (G-CSF; PBMC) (interferon-alpha (IFN-α); Table 30, non-naturally occurring chemistries, IFN-alpha from G-CSF modified mRNA in PBMC, background about 70 pg/ml): − (“−” means less than 100 pg/ml); Protein (G-CSF; HeLa) (HeLa cells [2]; Table 30, non-naturally occurring chemistries, G-CSF modified mRNA in HeLa): −
4 | B1 |  | 188.9 pg/mL | 187.2 pg/mL | 191.9 pg/mL | 189 pg/mL | 478.9 pg/mL | 261.1 pg/mL | 389.7 pg/mL | 376 pg/mL | 0.5 | 49.6 pg/mL | 24.1 pg/mL | 10.4 pg/mL | 28 pg/mL | 6.8 | 
5 | B2 |  | 139.3 pg/mL | 126.9 pg/mL | 102.0 pg/mL | 122 pg/mL | 564.3 pg/mL | 400.4 pg/mL | 670.7 pg/mL | 545 pg/mL | 0.2 | 85.6 pg/mL | 26.6 pg/mL | 19.8 pg/mL | 44 pg/mL | 2.8 | 
6 | B3 |  |  |  |  |  |  |  |  |  |  |  |  |  |  |  | G-CSF protein (pg/ml) HeLa cells (HeLa cells [2]; HeLa cells, combination chemistries, ELISA): 1,136 pg/ml
